Reference: IntAct's records for PubMed 17699623

B1: Protein BZR1 homolog 1 (Oryza sativa subsp. japonica (Rice)), Q7XI96 (parent)
chain: MTSGAAAAGRTPTWKERENNKRRERRRRAIAAKIFTGLRALGNYNLPKHCDNNEVLKALCREAGWVVEDDGTTYRKGCKPPPSSAGGASVGMSPCSSTQLLSAPSSSFPSPVPSYHASPASSSFPSPSRIDNPSASCLLPFLRGLPNLPPLRVSSSAPVTPPLSSPTASRPPKIRKPDWDVDPFRHPFFAVSAPASPTRGRRLEHPDTIPECDESDVSTVDSGRWISFQMATTAPTSPTYNLVNPGASTSNSMEIEGTAGRGGAEFEFDKGRVTPWEGERIHEVAAEELELTLGVGAK
partner: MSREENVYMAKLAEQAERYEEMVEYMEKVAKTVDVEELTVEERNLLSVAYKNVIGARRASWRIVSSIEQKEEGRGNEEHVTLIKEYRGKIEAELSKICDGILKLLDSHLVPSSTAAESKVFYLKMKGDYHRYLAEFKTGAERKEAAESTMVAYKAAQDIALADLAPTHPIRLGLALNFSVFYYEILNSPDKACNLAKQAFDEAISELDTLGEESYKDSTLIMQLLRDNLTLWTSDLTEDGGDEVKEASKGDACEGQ

Variants of: B1
Conditions: with 14333_orysj GF14C

| Variant | effect of a mutation on the interaction |
| --- | --- |
| MTSGAAAAGRTPTWKERENNKRRERRRRAIAAKIFTGLRALGNYNLPKHCDNNEVLKALCREAGWVVEDDGTTYRKGCKPPPSSAGGASVGMSPCSSTQLLSAPSSSFPSPVPSYHASPASSSFPSPSRIDNPSASCLLPFLRGLPNLPPLRVSSGAPVTPPLSSPTASRPPKIRKPDWDVDPFRHPFFAVSAPASPTRGRRLEHPDTIPECDESDVSTVDSGRWISFQMATTAPTSPTYNLVNPGASTSNSMEIEGTAGRGGAEFEFDKGRVTPWEGERIHEVAAEELELTLGVGAK [S156G] | disrupting interaction |
